The results in this text go back to patent US20130330359A1.

Assay [1] deals with carrier free RGMa (R&D Systems) (UniProt Q96B86). The assay can be described thus: direct EIA: carrier-free RGMa coated at 0.5 ug/mL; sample at 2 ug/ml; goat anti-mouse IgG-HRPO.
In assay [2] the target is carrier free RGMb (R&D Systems) (UniProt Q6NW40). The assay can be described thus: direct EIA: carrier-free RGMb coated at 0.5 ug/mL; sample at 2 ug/ml; goat anti-mouse IgG-HRPO.
The target of assay [3] is carrier free RGMc (R&D Systems) (human) (UniProt Q6ZVN8). Kind of assay: direct EIA: carrier-free RGMc coated at 0.5 ug/mL; sample at 2 ug/ml; goat anti-mouse IgG-HRPO.
carrier free RGMc (R&D Systems) (human), sequence (Q6ZVN8 36-400 limits assumed): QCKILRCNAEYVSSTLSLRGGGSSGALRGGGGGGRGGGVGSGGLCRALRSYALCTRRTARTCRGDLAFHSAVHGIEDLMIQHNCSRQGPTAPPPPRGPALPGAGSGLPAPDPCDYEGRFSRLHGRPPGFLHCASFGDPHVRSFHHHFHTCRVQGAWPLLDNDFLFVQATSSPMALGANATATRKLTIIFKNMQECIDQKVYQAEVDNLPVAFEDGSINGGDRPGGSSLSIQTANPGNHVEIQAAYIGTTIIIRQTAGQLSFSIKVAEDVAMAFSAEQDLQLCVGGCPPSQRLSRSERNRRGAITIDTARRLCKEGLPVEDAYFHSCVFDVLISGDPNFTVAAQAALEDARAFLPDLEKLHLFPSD

carrier free RGMa (R&D Systems), sequence (Q96B86 48-422 limits assumed): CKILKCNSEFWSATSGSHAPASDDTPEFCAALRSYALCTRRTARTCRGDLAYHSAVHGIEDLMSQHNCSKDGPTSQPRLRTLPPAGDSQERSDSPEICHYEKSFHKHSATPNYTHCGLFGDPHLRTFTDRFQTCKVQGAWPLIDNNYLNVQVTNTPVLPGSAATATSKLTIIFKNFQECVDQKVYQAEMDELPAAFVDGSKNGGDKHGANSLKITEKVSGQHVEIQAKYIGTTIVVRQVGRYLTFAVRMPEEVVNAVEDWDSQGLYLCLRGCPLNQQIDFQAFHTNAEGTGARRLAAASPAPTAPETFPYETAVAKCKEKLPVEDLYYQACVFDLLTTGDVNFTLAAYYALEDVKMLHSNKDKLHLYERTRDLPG
carrier free RGMb (R&D Systems), sequence (Q6NW40 46-413 limits assumed): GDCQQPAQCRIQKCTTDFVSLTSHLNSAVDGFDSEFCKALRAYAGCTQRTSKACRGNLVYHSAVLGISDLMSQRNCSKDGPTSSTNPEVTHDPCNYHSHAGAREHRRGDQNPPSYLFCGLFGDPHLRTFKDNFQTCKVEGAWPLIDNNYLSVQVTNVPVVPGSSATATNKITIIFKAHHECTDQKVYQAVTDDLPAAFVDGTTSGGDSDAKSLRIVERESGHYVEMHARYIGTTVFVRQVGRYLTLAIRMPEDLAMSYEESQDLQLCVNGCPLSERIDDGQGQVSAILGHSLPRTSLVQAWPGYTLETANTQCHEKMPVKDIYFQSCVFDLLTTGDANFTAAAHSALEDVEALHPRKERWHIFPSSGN

“negative control: purified mouse mAb from an irrelevant / different antigen system (antibody)”: the absorbance at 492 nm in assay [1] worked out at 0.1; in assay [2], 0.09; in assay [3] it was 0.14.
